Patent US20210032308A1 (published 2021)

Legend:
[1] = target: ML3d1-Pfe; experiment: SPR
[2] = target: ML1d1-Pfe; experiment: SPR

Kd [1]: 52 nM | Kd [2]: 82 nM
B1: CD2 (receptor)
chain: KEITNALETWGALGQDINLDIPSFQMSDDIDDIKWEKTSDKKKIAQFRKEKETFKEKDTYKLFKNGTLKIKHLKTDDQDIYKVSIYDTKGKNVLEKIFDLKIQERVSKPKISWTCINTTLTCEVMNGTDPELNLYQDGKHLKLSQRVITHKWTTSLSAKFKCTAGNKVSKESSVEPVSCPEKGLD
modifications: biotinylated (site not stated)
